Results reported in publication PMC4783868 (Nature, 2015).

Molecular target: T1, PB1 subunit of the influenza C/Johannesburg/1/1966 virus polymerase (FluPolC) (influenza C/Johannesburg/1/1966 virus, UniProt Q9IMP4)
T1 sequence: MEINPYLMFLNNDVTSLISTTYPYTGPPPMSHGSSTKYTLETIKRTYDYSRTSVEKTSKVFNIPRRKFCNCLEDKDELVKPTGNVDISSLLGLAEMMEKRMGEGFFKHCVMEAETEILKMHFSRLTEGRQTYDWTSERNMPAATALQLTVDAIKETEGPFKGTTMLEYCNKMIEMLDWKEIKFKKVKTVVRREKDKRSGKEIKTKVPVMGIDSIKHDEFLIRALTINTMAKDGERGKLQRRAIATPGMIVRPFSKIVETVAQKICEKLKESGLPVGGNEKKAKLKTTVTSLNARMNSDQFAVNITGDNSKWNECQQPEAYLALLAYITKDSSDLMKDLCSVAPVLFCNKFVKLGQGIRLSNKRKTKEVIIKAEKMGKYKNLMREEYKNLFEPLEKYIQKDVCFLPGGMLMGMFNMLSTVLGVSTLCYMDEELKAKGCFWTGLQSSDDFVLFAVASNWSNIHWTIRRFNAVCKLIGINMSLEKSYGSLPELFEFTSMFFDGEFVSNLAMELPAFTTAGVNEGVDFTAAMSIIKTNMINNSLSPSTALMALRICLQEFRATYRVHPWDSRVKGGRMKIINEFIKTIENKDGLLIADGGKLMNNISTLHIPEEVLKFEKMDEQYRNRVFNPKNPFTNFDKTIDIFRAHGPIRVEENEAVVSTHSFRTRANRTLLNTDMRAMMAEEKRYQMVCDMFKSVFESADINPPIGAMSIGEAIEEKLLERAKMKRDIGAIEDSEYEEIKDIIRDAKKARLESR
Assay: crystal structure

B1: P3 subunit of the influenza C/Johannesburg/1/1966 virus polymerase (FluPolC) (natural protein)
chain: MSKTFAEIAEAFLEPEAVRIAKEAVEEYGDHERKIIQIGIHFQVCCMFCDEYLSTNGSDRFVLIEGRKRGTAVSLQNELCKSYDLEPLPFLCDIFDREEKQFVEIGITRKADDSYFQSKFGKLGNSCKIFVFSYDGRLDKNCEGPMEEQKLRIFSFLATAADFLRKENMFNEIFLPDNEETIIEMKKGKTFLELRDESVPLPFQTYEQMKDYCEKFKGNPRELASKVSQMQSNIKLPIKHYEQNKFRQIRLPKGPMAPYTHKFLMEEAWMFTKISDPERSRAGEILIDFFKKGNLSAIRPKDKPLQGKYPIHYKNLWNQIKAAIADRTMVINENDHSEFLGGIGRASKKIPEISLTQDVITTEGLKQSENKLPEPRSFPRWFNAEWMWAIKDSDLTGWVPMAEYPPADNELEDYAEHLNKTMEGVLQGTNCAREMGKCILTVGALMTECRLFPGKIKVVPIYARSKERKSMQEGLPVPSEMDCLFGICVKSKSHLNKDDGMYTIITFEFSIREPNLEKHQKYTVFEAGHTTVRMKKGESVIGREVPLYLYCRTTALSKIKNDWLSKARRCFITTMDTVETICLRESAKAEENLVEKTLNEKQMWIGKKNGELIAQPLREALRVQLVQQFYFCIYNDSQLEGFCNEQKKILMALEGDKKNKSSFGFNPEGLLEKIEECLINNPMCLFMAQRLNELVIEASKRGAKFFKTD
binding result: binds
